This note sets out measurements from patent publication US20220348648A1 (Memorial Sloan Kettering, published 2022).

The target in experiment [1] is T1, endogenous human DLL3 on NCI-H82 cells (human, UniProt Q9NYJ7 27-618).
T1 sequence (looked up): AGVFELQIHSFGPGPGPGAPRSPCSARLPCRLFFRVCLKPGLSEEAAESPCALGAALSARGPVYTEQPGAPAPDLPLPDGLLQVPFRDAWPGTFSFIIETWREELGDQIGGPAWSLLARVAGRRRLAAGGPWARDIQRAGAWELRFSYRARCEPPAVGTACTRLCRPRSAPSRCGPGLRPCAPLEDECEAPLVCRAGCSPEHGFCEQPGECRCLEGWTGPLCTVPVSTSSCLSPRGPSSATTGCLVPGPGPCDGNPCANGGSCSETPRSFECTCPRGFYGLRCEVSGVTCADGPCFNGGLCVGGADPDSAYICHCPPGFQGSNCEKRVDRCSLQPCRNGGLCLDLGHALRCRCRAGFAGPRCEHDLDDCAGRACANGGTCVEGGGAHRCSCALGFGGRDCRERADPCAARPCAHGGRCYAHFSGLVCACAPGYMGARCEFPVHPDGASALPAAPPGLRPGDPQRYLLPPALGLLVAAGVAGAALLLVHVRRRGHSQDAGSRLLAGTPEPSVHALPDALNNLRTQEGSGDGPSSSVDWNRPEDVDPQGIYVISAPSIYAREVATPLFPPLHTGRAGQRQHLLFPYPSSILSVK
Put plainly: cell-based or functional assay.

In experiment [2] the target is T2, full-length mouse DLL3 on transfected HEK293 cells (mouse, UniProt O88516 33-584).
T2 construct: also called 293 mDLL3
T2 sequence: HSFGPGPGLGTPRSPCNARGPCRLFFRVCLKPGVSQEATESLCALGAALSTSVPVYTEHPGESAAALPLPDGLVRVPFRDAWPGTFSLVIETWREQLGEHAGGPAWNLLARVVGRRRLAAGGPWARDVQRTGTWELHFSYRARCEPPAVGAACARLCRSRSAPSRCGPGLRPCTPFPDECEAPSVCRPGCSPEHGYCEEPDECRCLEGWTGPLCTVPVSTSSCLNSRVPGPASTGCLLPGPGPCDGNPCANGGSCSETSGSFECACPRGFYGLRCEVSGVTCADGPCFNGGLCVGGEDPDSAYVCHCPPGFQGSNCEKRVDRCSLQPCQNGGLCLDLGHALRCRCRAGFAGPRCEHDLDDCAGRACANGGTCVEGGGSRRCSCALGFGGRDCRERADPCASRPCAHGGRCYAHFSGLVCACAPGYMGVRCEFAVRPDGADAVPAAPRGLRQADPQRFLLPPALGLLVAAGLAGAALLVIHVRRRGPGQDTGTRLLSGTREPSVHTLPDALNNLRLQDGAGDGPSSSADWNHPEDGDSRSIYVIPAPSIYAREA
Put plainly: flow cytometry, 10 µg/ml antibody on HEK293 cells transfected with full-length mouse DLL3. As to the method:
(§1) The four monoclonal antibodies (6-G23-F, 2-C8-A, 7-I1-B and 10-O18-A) were tested for their ability to bind to mouse and cynomologus DLL3 as well as endogenous human DLL3 by flow cytometry. For this purpose, HEK293 cells were transfected with plasmid DNA encoding full-length human, mouse or cynomologus DLL3 and used in the experiment. Briefly 10⁶ transfected HEK293 cells or NCI-H82 primary cells were added in FACS buffer PBS 0.5% BSA to the wells of a 96 well U bottom plate and purified monoclonal added to 10 μg/ml. After 30 minutes incubation at 4° C. the cells were washed 3 times in FACS buffer and incubated with a PE labelled F(ab)2 anti-mouse IgG H and L 2nd stage. After another 30 minutes incubation at 4° C. the cells were washed three times in FACS buffer and analyzed on the flow cytometer. Data are presented at the ratio of the Mean Fluorescent Intensity for the monoclonal divided by the background staining with the 2nd stage. As shown in the Table below, all of the monoclonal antibodies cross reacted with cynomologus DLL3 and detected endogenous DLL3 on NCI H82 cells but only 6-G23-F and 7-I1-B bound to mouse DLL3.
In general terms: Flow cytometry measures light scatter and fluorescence of single cells or particles in a stream.

Experiment [3] concerns the target T1, endogenous human DLL3 on NCI-H82 cells. Put plainly: flow cytometry, 10 µg/ml antibody on NCI-H82 cells (endogenous DLL3). As to the method: as §1
The target in a further experiment is DLL4 (UniProt Q9NR61 27-524, limits assumed). The experiment in a line: FIG. 7; assay not described.
Sequence of DLL4 (Q9NR61 27-524 limits assumed): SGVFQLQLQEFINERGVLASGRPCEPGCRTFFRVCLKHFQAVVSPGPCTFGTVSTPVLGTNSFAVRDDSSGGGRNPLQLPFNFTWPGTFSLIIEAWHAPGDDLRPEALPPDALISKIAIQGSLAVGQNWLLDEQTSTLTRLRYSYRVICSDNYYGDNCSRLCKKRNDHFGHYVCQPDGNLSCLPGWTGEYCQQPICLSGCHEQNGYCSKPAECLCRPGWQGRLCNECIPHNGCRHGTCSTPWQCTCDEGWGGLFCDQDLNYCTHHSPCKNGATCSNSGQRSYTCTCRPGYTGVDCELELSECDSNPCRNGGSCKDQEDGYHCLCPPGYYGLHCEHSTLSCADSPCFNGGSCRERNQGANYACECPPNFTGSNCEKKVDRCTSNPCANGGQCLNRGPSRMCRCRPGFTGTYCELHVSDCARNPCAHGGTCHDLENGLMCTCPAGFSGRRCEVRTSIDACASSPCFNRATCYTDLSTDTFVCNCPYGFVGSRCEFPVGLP
The target in the next experiment is T3, DLL1 (UniProt O00548 18-545, limits assumed).
T3 sequence (looked up): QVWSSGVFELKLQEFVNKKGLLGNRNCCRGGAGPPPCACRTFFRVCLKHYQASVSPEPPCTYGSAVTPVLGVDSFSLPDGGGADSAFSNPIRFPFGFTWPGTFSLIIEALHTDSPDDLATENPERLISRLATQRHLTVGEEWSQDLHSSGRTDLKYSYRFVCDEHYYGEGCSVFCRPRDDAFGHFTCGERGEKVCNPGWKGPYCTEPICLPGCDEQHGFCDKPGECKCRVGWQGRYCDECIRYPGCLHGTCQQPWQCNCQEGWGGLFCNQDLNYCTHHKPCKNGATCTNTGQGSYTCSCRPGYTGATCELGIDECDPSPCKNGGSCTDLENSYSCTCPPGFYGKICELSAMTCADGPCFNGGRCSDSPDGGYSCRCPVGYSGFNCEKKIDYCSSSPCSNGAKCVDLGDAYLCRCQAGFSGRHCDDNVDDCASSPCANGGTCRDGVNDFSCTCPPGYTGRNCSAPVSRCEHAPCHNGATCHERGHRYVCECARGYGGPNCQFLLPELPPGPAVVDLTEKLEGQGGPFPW
Put plainly: FIG. 7; assay not described.

The target in experiment [4] is T4, full-length cynomologus DLL3 on transfected HEK293 cells (cynomologus, UniProt A0A2K5WSR1 27-585).
T4 construct: also called 293 cyno DLL3
T4 sequence: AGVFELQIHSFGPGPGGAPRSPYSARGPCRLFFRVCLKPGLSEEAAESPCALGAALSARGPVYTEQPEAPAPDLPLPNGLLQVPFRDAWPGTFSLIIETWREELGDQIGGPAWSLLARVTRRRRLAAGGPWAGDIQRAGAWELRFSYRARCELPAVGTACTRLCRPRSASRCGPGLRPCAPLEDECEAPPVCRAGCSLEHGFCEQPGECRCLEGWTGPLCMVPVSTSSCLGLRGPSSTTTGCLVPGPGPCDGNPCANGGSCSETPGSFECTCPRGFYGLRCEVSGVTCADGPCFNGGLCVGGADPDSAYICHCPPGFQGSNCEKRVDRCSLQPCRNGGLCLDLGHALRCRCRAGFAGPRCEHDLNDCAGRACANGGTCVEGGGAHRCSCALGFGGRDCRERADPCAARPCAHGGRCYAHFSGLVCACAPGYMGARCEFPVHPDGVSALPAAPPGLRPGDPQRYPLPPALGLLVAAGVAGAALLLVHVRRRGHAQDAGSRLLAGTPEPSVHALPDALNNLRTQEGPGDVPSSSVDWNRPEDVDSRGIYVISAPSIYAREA
The experiment in a line: flow cytometry, 10 µg/ml antibody on HEK293 cells transfected with full-length cynomologus DLL3. As to the method:
as §1

The target of experiment [5] is T5, full-length human DLL3 on transfected HEK293 cells (human, UniProt Q9NYJ7 27-618).
T5 construct: also called 293 hDLL3
T5 sequence: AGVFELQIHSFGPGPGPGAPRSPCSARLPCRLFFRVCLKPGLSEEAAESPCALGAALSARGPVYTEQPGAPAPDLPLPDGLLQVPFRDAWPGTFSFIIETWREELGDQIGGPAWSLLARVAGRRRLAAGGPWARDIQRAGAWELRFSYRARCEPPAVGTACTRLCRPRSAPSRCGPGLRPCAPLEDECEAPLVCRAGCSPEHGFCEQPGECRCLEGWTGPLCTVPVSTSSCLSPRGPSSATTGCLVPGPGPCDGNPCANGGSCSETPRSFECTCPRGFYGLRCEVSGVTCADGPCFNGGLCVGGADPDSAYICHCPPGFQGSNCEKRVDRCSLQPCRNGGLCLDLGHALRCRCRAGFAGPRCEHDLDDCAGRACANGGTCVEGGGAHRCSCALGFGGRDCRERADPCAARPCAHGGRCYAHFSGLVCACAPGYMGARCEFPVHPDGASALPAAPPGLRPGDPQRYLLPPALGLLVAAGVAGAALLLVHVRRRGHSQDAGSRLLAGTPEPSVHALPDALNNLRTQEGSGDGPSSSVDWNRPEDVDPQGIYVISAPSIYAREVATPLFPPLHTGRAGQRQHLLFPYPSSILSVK
The experiment in a line: flow cytometry, 10 µg/ml antibody on HEK293 cells transfected with full-length human DLL3. As to the method: as §1

The target in experiment [6] is T1, endogenous human DLL3 on NCI-H82 cells. Put plainly: cell-based or functional assay. The source holds these as a separate data set.
The target is the same in experiment [7]. The experiment in a line: cell-based or functional assay. This is another data set of the same source.

B1: 10-O18-A (antibody, V domains shown)
VH: QVQLQESGPGLVKPSETLSLTCTVSGGSINSYYWSWIRQPPGKGLEWIGYIFYSGITNYNPSLKSRVTISLDTSKNQFSLKLSSVTAADTAVYYCARIGVAGFYFDYWGQGTLVTVSS
VL: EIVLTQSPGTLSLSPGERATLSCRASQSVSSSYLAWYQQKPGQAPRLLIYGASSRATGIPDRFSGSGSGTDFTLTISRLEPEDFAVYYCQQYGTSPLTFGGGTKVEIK
notes: Purified hybridoma monoclonal from Ablexis AlivaMAb Kappa mice; the antibody was captured on anti-mouse Fc sensors and detected with anti-mouse IgG / anti-mouse IgG1 reagents; also called 10-018-A; 10-O18-A (10 µg/ml)
With B1, the “MFI Ratio (4° C. / 37° C. staining, 4/37 internalization assay on NCI-H82 cells)” value in [1] is 1.56 ratio. Also, the “ratio of the Mean Fluorescent Intensity for the monoclonal divided by the background staining with the 2nd stage” value in experiment [2] came to 0.99 ratio; in experiment [3] it was 9.4 ratio; in [4], 9.85 ratio; in experiment [5], 4.74 ratio. The binding result with DLL4 and in the experiment with DLL1 was “no binding” in each case.

B2: 2-C8-A (antibody, V domains shown)
VH: EVQLVESGGGLVQPGGSQRLSCAASGFTFSSYWMNWVRQAPGKGLEWVANIKEDGSEKYYVDSVKGRFTISRDNAKNSLYLQMNSLRAEDTAVYYCARDPGWAPFDYWGQGTLVTVSS
VL: DIQMSQSPSSLSASVGDRVTITCRASQGISNYLAWFQQKPGKAPKSLIYAASSLQSGVPSKFSGSGSGTDFTLAISSLQPEDFATYYCQQYNSFPYTFGQGTTLEIK
notes: Purified hybridoma monoclonal from Ablexis AlivaMAb Kappa mice; the antibody was captured on anti-mouse Fc sensors and detected with anti-mouse IgG / anti-mouse IgG1 reagents; also called 2-C8-A (10 µg/ml)
Consider B2, for which the “MFI Ratio (4° C. / 37° C. staining, 4/37 internalization assay on NCI-H82 cells)” value in [1] amounted to 1.76 ratio. For the same molecule, the “ratio of the Mean Fluorescent Intensity for the monoclonal divided by the background staining with the 2nd stage” value in experiment [2] came to 1.5 ratio; in experiment [3] it was 11.9 ratio; in experiment [4] it was 15 ratio; in experiment [5], 7.71 ratio. The “Dy light Dy658 Fluorescence (% of the Control Reference Monoclonal Antibody), quenching internalization assay on NCI-H82 cells” value in experiment [6] is 62.9 % of the Control Reference Monoclonal Antibody. For the same molecule, the “FAB ZAP % SC16 Max Killing (saporin Fab ZAP cytotoxicity on NCI-H82 cells)” value (shortened to “FAB ZAP % SC16 Max Killing”) in experiment [7] turned out to be 89 % SC16 Max Killing. Besides, the binding result with DLL4 and with DLL1 was “no binding” each time.

B3: 7-I1-B (antibody, V domains shown)
VH: EVQLVESGGGLVKPGGSLRLSCAASGFTFSNTWMSWVRQAPGKGLEWVGRIKSKSDGGTTDYAAPVKGRFTISRDDSKNTLYLQMNSLKTEDTAVYYCTQYYWNSFDYWGQGTLVTVSS
VL: not shown
notes: Purified hybridoma monoclonal from Ablexis AlivaMAb Kappa mice; the antibody was captured on anti-mouse Fc sensors and detected with anti-mouse IgG / anti-mouse IgG1 reagents; also called 7-I1-B (10 µg/ml)
As for B3, the “MFI Ratio (4° C. / 37° C. staining, 4/37 internalization assay on NCI-H82 cells)” value in [1] was 1.68 ratio. Further, the “ratio of the Mean Fluorescent Intensity for the monoclonal divided by the background staining with the 2nd stage” value in [2] is 4.7 ratio; in [3], 19.2 ratio; in [4], 18.7 ratio; in experiment [5] it was 9.74 ratio. Moreover, the “Dy light Dy658 Fluorescence (% of the Control Reference Monoclonal Antibody), quenching internalization assay on NCI-H82 cells” value in experiment [6] is 70.1 % of the Control Reference Monoclonal Antibody. Also, the “FAB ZAP % SC16 Max Killing” value in experiment [7] amounted to 97 % SC16 Max Killing. Also, the binding result in the experiment with DLL1 is “no binding”.

B4: 6-G23-F (antibody, V domains shown)
VH: QVQLVQSGAEVKKPGASVKVSCKASGYTFTSYYIHWVRQAPGQGLEWMGIIDPSDGSTNYAQKFQGRVTMTRDTSTSTVYMELSSLRSEDTAVYYCARDREYNYYGLDVWGQGTTVTVSS
VL: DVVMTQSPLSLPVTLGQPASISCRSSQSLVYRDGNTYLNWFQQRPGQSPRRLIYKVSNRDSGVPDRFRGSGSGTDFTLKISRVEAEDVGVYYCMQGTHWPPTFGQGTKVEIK
notes: Purified hybridoma monoclonal from Ablexis AlivaMAb Kappa mice (human immunoglobulin repertoire); the antibody was captured on anti-mouse Fc sensors and detected with anti-mouse IgG / anti-mouse IgG1 reagents; also called 6-G23-F (10 µg/ml)
B4: the “MFI Ratio (4° C. / 37° C. staining, 4/37 internalization assay on NCI-H82 cells)” value in experiment [1] was 1.67 ratio. Further, the “ratio of the Mean Fluorescent Intensity for the monoclonal divided by the background staining with the 2nd stage” value in [2] stood at 3.97 ratio; in experiment [3] it was 11.1 ratio; in experiment [4] it was 13.1 ratio; in experiment [5], 6.33 ratio. Further, in experiment [6], the “Dy light Dy658 Fluorescence (% of the Control Reference Monoclonal Antibody), quenching internalization assay on NCI-H82 cells” value was 76.5 % of the Control Reference Monoclonal Antibody. In addition, in [7], the “FAB ZAP % SC16 Max Killing” value was 94 % SC16 Max Killing. For the same molecule, the binding result in the experiment with DLL4 and with DLL1 was “no binding” throughout.
